Laboratory results: patent US20180362660A1 (published 2018)

Tests used:
[1] = target: T1, mouse penumbra protein (mpen), native, on primary mouse B lymphocytes (mouse, UniProt Q8R3S2 1-283); assay: flow cytometry on Balb/C mouse bone marrow cells, FITC-conjugated mAb
T1 construct: whole, on cells; This form has no tag, unlike m5; also called cell surface pen
T1 sequence (looked up): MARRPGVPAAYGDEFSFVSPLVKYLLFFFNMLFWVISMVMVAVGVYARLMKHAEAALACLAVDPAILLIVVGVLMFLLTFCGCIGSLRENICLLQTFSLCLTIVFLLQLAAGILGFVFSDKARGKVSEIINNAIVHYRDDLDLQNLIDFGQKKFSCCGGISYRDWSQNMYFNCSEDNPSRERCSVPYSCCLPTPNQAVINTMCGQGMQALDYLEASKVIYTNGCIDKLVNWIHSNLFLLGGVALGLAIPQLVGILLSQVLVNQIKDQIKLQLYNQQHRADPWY
Description: Flow cytometry data were analyzed using FloJo v.10 software. The number in each quadrant denotes %. FIG. 5A: A dot plot of isotype-PE vs. isotype-FITC. FIG. 5B: A dot plot of isotype-PE vs. A296.2-FITC. FIG. 5C: Anti-CD19-PE vs. isotype-FITC. […] FIG. 5E: Anti-B220-PE vs. isotype-FITC. […] FIG. 5G: Anti-CD20-PE vs. isotype-FITC. […] FIG. 5I: Anti-CD138-PE vs. isotype-FITC. […] FIG. 5K: Anti-CD117-PE vs. isotype-FITC. […] FIG. 5M: TER119-PE vs. isotype-FITC. […] FIG. 5O: Anti-Mac-1-PE vs. isotype-FITC. […] Data shown were lymphocyte-gated.
(§1) The medium used for cell staining was Hank's Balanced Salt Solution (HBSS) supplemented with heat-inactivated FBS (5% vol/vol) and sodium azide (0.09% wt/vol). This solution is known as “H5FAH”. All staining and washing were performed at 4° C. The flow cytometer used was a DxP flow cytometer with CYTOTEK™ upgrade (Cytotek). Analysis of flow cytometry data was performed using FLOWJO™ v. 9 (FIG. 3 only) or v.10 (Beckton-Dickinson)(BD). Fluorescence microscopy was performed using a microscope equipped with a digital camera.

[2] = target: T2, mouse penumbra protein (mpen) fused to a C-terminal Myc-Hisx6 tag, on BaF3/mpen cells (mouse, UniProt Q8R3S2 1-283); assay: flow cytometry, hybridoma supernatant on live BaF3/mpen, GAMIgs-FITC detection
T2 construct: whole, on cells; Stably expressed in the pen-negative mouse pre-B cell line BaF3; also called cell-surface pen; tetraspanin 33; not shown: Myc-Hisx6 tag from vector pcDNA3.1 at the intracellular C-terminus
T2 sequence (looked up): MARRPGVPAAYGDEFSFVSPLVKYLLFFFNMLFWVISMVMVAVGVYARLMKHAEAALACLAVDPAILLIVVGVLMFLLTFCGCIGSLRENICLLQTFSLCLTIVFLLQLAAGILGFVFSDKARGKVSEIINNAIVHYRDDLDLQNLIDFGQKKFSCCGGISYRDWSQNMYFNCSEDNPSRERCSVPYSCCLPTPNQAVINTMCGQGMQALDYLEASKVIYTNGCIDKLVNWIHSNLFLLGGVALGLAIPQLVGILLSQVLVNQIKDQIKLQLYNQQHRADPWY
Description: as §1

[3] = target: T3, human penumbra protein (hpen) (human, UniProt Q86UF1 1-283); assay: flow cytometry on human blood mononuclear cells, FITC-conjugated mAb
T3 construct: whole, on cells; Untagged; also called BaF3/hpen; tetraspanin 33
T3 sequence (looked up): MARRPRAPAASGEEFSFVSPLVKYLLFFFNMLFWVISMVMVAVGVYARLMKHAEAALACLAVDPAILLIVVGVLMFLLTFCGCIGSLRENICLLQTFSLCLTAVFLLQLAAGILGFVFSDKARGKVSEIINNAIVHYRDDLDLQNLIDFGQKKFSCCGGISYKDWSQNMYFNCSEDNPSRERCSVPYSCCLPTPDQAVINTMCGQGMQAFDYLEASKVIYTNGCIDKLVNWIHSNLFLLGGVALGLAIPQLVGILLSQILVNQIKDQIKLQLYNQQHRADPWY

[4] = target: T3, human penumbra protein (hpen); assay: immunofluorescence microscopy on live BaF3/hpen
[5] = target: T2, mouse penumbra protein (mpen) fused to …; assay: immunofluorescence microscopy on live BaF3/mpen
[6] = target: T2, mouse penumbra protein (mpen) fused to …; assay: indirect immunofluorescence microscopy on live BaF3/mpen

Measured: binding result

B1: mAb 29A6.2 (antibody, V domains shown)
VH: QVQLKQSGPGLVQPSQSLSITCTVSGFSLTSYGVHWVRQSPGKGLEWLGVIWSGGSTDYNAAFISRLSISKDNSKSQVFFKMNSLQADDTAIYYCATFDYWGQGTTLTVSS
VL: DIVITQDELSNPVTSGESVSISCRSSKSLLYKDGKTYLNWFLQRPGQSPQLLIYLMSTRASGVSDRFSGSGSGTDFTLEISRVKAEDVGVYYCQQLVEYPFTFGSGTKLEIKR
notes: Tested as hybridoma supernatant or as purified, FITC-conjugated antibody; also called 29A6.2-FITC; hybridoma 29A6.2
binds: [1] | [2] | [3]

B2: mAb 59E6.8 (antibody, V domains shown)
VH: QVQLQQPGAELVKPGASVKMSCKASGYTFTSYWITWVKQRPGQGLEWIGDIYPGSGSTNYNEKFKSKATLTVDTSSSTAYMQLSSLTSEDSAVYYCARDYYGSSYDYWGQGTTLTVSS
VL: DIVITQDELSNPVTSGESVSISCRSSKSLLYKDGKTYLNWFLQRPGQSPQLLIYLMSTRASGVSDRFSGSGSGTDFTLEISRVKAEDVGVYYCQQLVEYPFTFGSGTKLEIKR
notes: The first 19 amino acids of each entry are signal peptides and are left out; Tested as hybridoma supernatant or as purified, FITC-conjugated antibody; also called 59E6.8-FITC; anti-pen mAb
binds: [1] | [4] | [5]

B3: mAb 41B10.13 (antibody, V domains shown)
VH: QVQLKESGPGLVAPSQSLSITCTVSGFSLTSYAISWVRQPPGKGLEWLGVIWTGGGTNYNSALKSRLSISKDNSKSQVFLKMNSLQTDDTARYYCAREGNAYYSNYESTAYWGQGTLVTVSA
VL: DIVITQDELSNPVTSGESVSISCRSSKSLLYKDGKTYLNWFLQRPGQSPQLLIYLMSTRASGVSDRFSGSGSGTDFTLEISRVKAEDVGVYYCQQLVEYPFTFGSGTKLEIKR
notes: The first 19 amino acids of each entry are signal peptides and are left out; Tested as hybridoma supernatant or as purified, FITC-conjugated antibody; also called 41B10.13-FITC; 41B10-FITC
binds: [1] | [4] | [6]
